Patent US20250145708A1 (GOOD T CELLS, published 2025)

How the values were obtained:
Assay in all cases: Lrig-1 peptide microarray (15-mers, 14 aa overlap), H6 at 1, 10 and 100 µg/ml
[1] = molecular target: T1, Lrig-1 epitope peptide SEQ ID NO: 24
T1 peptide: RQVTFGHEGRY
Experimental: (§1) Pre-staining of a Lrig-1 peptide microarray copy using secondary and control antibodies in incubation buffer was performed to identify whether they can interact with antigen-derived peptides that can interfere with the main assays. Subsequent incubation of other Lrig-1 peptide microarray copies with the H6 monoclonal antibody of Production Example 8 (1 μg/ml, 10 μg/ml, and 100 μg/ml) in incubation buffer was followed by staining with secondary and control antibodies. Read-out was performed at a scanning intensity of 7/7 (red/green) using the LI-COR Odyssey Imaging System. Quantification of spot intensities and peptide annotation were based on the 16-bit gray scale tiff files. Microarray image analysis was done with PepSlide® Analyzer.

[2] = molecular target: T2, Lrig-1 epitope peptide SEQ ID NO: 26
T2 peptide: RLTVNVLPSFTKTPH
Experimental: as §1

[3] = molecular target: T3, Lrig-1 epitope peptide SEQ ID NO: 27
T3 peptide: RRMHVMPDDDVFF
Experimental: as §1

[4] = molecular target: T4, Lrig-1 epitope peptide SEQ ID NO: 18
T4 construct: it was not itself a separately tested peptide
T4 peptide: WTRSLNLSYNKL
Experimental: as §1

[5] = molecular target: T5, Lrig-1 epitope peptide SEQ ID NO: 20
T5 peptide: RLTQLDLNRNRIR
Experimental: as §1

[6] = molecular target: T6, Lrig-1 epitope peptide SEQ ID NO: 25
T6 peptide: FGHEGRYQCVITNHF
Experimental: as §1

[7] = molecular target: T7, Lrig-1 epitope peptide SEQ ID NO: 22
T7 peptide: NSIARIHRKGW
Experimental: as §1

[8] = molecular target: T8, Lrig-1 epitope peptide SEQ ID NO: 28
T8 peptide: FFITDVKIDDAGVYS
Experimental: as §1

[9] = molecular target: T9, Lrig-1 epitope peptide SEQ ID NO: 19
T9 peptide: TEVRNTCFPHGPPI
Experimental: as §1

[10] = molecular target: T10, Lrig-1 epitope peptide SEQ ID NO: 21
T10 peptide: DLNRNRIRLIEGLTF
Experimental: as §1

[11] = molecular target: T11, Lrig-1 epitope peptide SEQ ID NO: 23
T11 peptide: WLPPWLIGRMLQAF
Experimental: as §1

Measured: binding result

B1: H6 clone monoclonal antibody (Production Example 8) (antibody, mouse IgG2a, V domains shown)
VH: EVQLLESGGGLVQPGGSLRLSCAASGFTFSNYAMSWVRQAPGKGLEWVSVISHGGGSTYYADSVKGRFTISRDNSKNTLYLQMNSLRAEDTAVYYCARVISNCHLGVCYYSNGMDVWGQGTLVTVSS
VL: QSVLTQPPSASGTPGQRVTISCSGSSSNIGNNDVYWYQQLPGTAPKLLIYSDSQRPSGVPDRFSGSKSGTSASLAISGLRSEDEADYYCGTWDYSLSGYVFGGGTKLTVLR
notes: also called H6 monoclonal antibody
binds: all assays above
